B1: r11_951_TrROS_Hall (parent)
chain: KKKYVIKVYFEDTGKEVEIEAESKEEALEAAKRLAEELGLKIKKVEIYP

Variants of: B1
Assay: folding stability dG (cDNA display proteolysis); higher = more stable
Conditions: PBS, room temperature

Point of comparison: KKKYVDKVYFEDTGKEVEIEAESKEEALEAAKRLAEELGLKIKKVEIYP [I6D], “folding stability dG” value 0.044 kcal/mol. Against it:
- KKKYVIKVYFEDTGKEVEIEAESKEEALEDAKRLAEELGLKIKKVEIYP [A30D] — higher, 4.16 kcal/mol
- KKKYVIKVYFEDTGKEVEIEAESKEEALESAKRLAEELGLKIKKVEIYP [A30S] — higher, 4.45 kcal/mol
- KKKYVIKVYFEDTGKEVEIEAESKEEALEAAKRLAEELGWKIKKVEIYP [L40W] — higher, 4.72 kcal/mol
- KKKYVIKVYFEDTGKEVEIEAESKEEALEAAKRLAEELGNKIKKVEIYP [L40N] — higher, 3.66 kcal/mol
- KKKYVIKVYFEDTGKEVEIEAESKEEAAEAAKRLAEELGLKIKKVEIYP [L28A] — higher, 4.28 kcal/mol
- KKKYVIKVYFEDTGKEVEIEAESKEEALEAAKVLAEELGLKIKKVEIYP [R33V] — higher, 4.22 kcal/mol
- KKKYVIKVYFEDTGKEVEIEAESKEEALEAAKRLAEELGLKIKKVEIYD [P49D] — higher, 4.59 kcal/mol
- KKKYVIKVYFEDTGKEVEIEAESKEEALEAAKRLAEELGLKIKKVEIYT [P49T] — higher, 4.62 kcal/mol
- KKKYVIKVYFEDTAKEVEIEAESKEEALEAAKRLAEELGLKIKKVEIYP [G14A] — higher, 4.34 kcal/mol
- KKKYVIKVYFEDTTKEVEIEAESKEEALEAAKRLAEELGLKIKKVEIYP [G14T] — higher, 4.41 kcal/mol
- KKKYVIKVYFEDTCKEVEIEAESKEEALEAAKRLAEELGLKIKKVEIYP [G14C] — higher, 4.36 kcal/mol
- KKKYVIKVYFEDTGKEVEAEAESKEEALEAAKRLAEELGLKIKKVEIYP [I19A] — higher, 3.98 kcal/mol
- KKKYVIKVYFEDTGKEVELEAESKEEALEAAKRLAEELGLKIKKVEIYP [I19L] — higher, 4.5 kcal/mol
- KKKYVIKVYFEDTGKEVEWEAESKEEALEAAKRLAEELGLKIKKVEIYP [I19W] — higher, 4.51 kcal/mol
- KKKYVIKVYFEDTGKEVEIEAESKEEALEAAGRLAEELGLKIKKVEIYP [K32G] — higher, 4.13 kcal/mol
- KKKYVIKVYFEDTGKEVSIEAESKEEALEAAKRLAEELGLKIKKVEIYP [E18S] — higher, 4.25 kcal/mol
- KKKYVIKVYFEDTGKEVEIEAESKEEALEAAKRLAEEHGLKIKKVEIYP [L38H] — higher, 4.13 kcal/mol
- KKKYVIKVYMEDTGKEVEIEAESKEEALEAAKRLAEELGLKIKKVEIYP [F10M] — higher, 3.73 kcal/mol
- KKKYVIKVYFEDTGKEVEIEAESKEEALNAAKRLAEELGLKIKKVEIYP [E29N] — higher, 4.53 kcal/mol
- KKKYVIKVYFEDTGKEVEIEAESKEEALEAAKRLAEELGLKIKKVEIEP [Y48E] — higher, 4.1 kcal/mol
- KKKYVIKVYFEDTGKEVEIEAESKEEALEAWKRLAEELGLKIKKVEIYP [A31W] — higher, 4.25 kcal/mol
- KKKYVIKVYFEDTGKEVEIEAESKEEALEAVKRLAEELGLKIKKVEIYP [A31V] — higher, 4.45 kcal/mol
- KKLYVIKVYFEDTGKEVEIEAESKEEALEAAKRLAEELGLKIKKVEIYP [K3L] — higher, 4.63 kcal/mol
- KSKYVIKVYFEDTGKEVEIEAESKEEALEAAKRLAEELGLKIKKVEIYP [K2S] — higher, 4.52 kcal/mol
- KEKYVIKVYFEDTGKEVEIEAESKEEALEAAKRLAEELGLKIKKVEIYP [K2E] — higher, 4.29 kcal/mol
- KKKYVIKVYFEDTGKEVEIEHESKEEALEAAKRLAEELGLKIKKVEIYP [A21H] — higher, 4.3 kcal/mol
- KKKYVIKVYFEDTGKEVEIEAISKEEALEAAKRLAEELGLKIKKVEIYP [E22I] — higher, 4.11 kcal/mol
- KKKYVIKWYFEDTGKEVEIEAESKEEALEAAKRLAEELGLKIKKVEIYP [V8W] — higher, 4.03 kcal/mol
- KKKYVIKTYFEDTGKEVEIEAESKEEALEAAKRLAEELGLKIKKVEIYP [V8T] — higher, 2.91 kcal/mol
- KKKYVIKVYFEDTGKEVEIEAESKEEALEAAKRLADELGLKIKKVEIYP [E36D] — higher, 4.42 kcal/mol
- KKKYVIKVYFEDTGKEVEIEAESKEEALEAAKRLASELGLKIKKVEIYP [E36S] — higher, 4.53 kcal/mol
- KKKYVIKVYFEDTGKEVEIEAESKEEALEAAKRLAIELGLKIKKVEIYP [E36I] — higher, 4.61 kcal/mol
- KKKYVIKVYFEDTGKEVEIEAESKEVALEAAKRLAEELGLKIKKVEIYP [E26V] — higher, 4.24 kcal/mol
- KKKYVIKVYFEDTGKEVEIEAESREEALEAAKRLAEELGLKIKKVEIYP [K24R] — higher, 4.3 kcal/mol
- KKKYVIKVYFEDTGKEVEIEAESKEEALEAAKRKAEELGLKIKKVEIYP [L34K] — higher, 4.35 kcal/mol
- KKKYVIKVYFEDTGKEVEIEAEAKEEALEAAKRLAEELGLKIKKVEIYP [S23A] — higher, 4.08 kcal/mol
- KKKYVIPVYFEDTGKEVEIEAESKEEALEAAKRLAEELGLKIKKVEIYP [K7P] — higher, 1.45 kcal/mol
- KKKYVIHVYFEDTGKEVEIEAESKEEALEAAKRLAEELGLKIKKVEIYP [K7H] — higher, 4.19 kcal/mol
- KKKYVIKVYFEDTGKENEIEAESKEEALEAAKRLAEELGLKIKKVEIYP [V17N] — higher, 3.71 kcal/mol
- KKKYVIKVYFEDTGKEVEIEAESKEEALEAAKRLAEELGLKIKKFEIYP [V45F] — higher, 4.48 kcal/mol
- KKKYVIKVYFEDTGKEVEIEAESKEEALEAAKRLAEELGLKIKKREIYP [V45R] — higher, 2.97 kcal/mol
- KKKYVIKVMFEDTGKEVEIEAESKEEALEAAKRLAEELGLKIKKVEIYP [Y9M] — higher, 4.4 kcal/mol
- KKKYVIKVYFNDTGKEVEIEAESKEEALEAAKRLAEELGLKIKKVEIYP [E11N] — higher, 4.67 kcal/mol
- KKKYVIKVYFEDTGKEVEIEAESKEEALEAAKRLAEHLGLKIKKVEIYP [E37H] — higher, 4.72 kcal/mol
- KKKYVIKVYFEDTGKEVEIMAESKEEALEAAKRLAEELGLKIKKVEIYP [E20M] — higher, 4.42 kcal/mol
- AKKYVIKVYFEDTGKEVEIEAESKEEALEAAKRLAEELGLKIKKVEIYP [K1A] — higher, 4.25 kcal/mol
- KKKYVIKVYFECTGKEVEIEAESKEEALEAAKRLAEELGLKIKKVEIYP [D12C] — higher, 4.38 kcal/mol
- KKKYEIKVYFEDTGKEVEIEAESKEEALEAAKRLAEELGLKIKKVEIYP [V5E] — higher, 3.42 kcal/mol
- KKKYYIKVYFEDTGKEVEIEAESKEEALEAAKRLAEELGLKIKKVEIYP [V5Y] — higher, 4.37 kcal/mol
- KKKYGIKVYFEDTGKEVEIEAESKEEALEAAKRLAEELGLKIKKVEIYP [V5G] — higher, 3.95 kcal/mol
- KKKYVIKVYFEDTGKEVEIEAESKEEALEAAKRLAEELGLKYKKVEIYP [I42Y] — higher, 3.75 kcal/mol
- KKKYVIKVYFEDTGKEVEIEAESKEEALEAAKRLAEELGLKGKKVEIYP [I42G] — higher, 2.51 kcal/mol

Source: the MegaScale stability set (Tsuboyama et al. 2023)
